Assay results taken from patent EP4631523A2.

Key:
interleukin 6 (IL-6) [1] = molecular target: interleukin 6 (IL-6) (UniProt P05231); experiment: IL-6 binding ELISA; 5±3°C, 6 months
interleukin 6 (IL-6) [2] = molecular target: interleukin 6 (IL-6) (UniProt P05231); experiment: IL-6 binding ELISA; 25±2°C, 1 month
interleukin 6 (IL-6) [3] = molecular target: interleukin 6 (IL-6) (UniProt P05231); experiment: IL-6 binding ELISA; 40±2°C, 3 months
interleukin 6 (IL-6) [4] = molecular target: interleukin 6 (IL-6) (UniProt P05231); experiment: IL-6 binding ELISA, relative to a Phase I DS lot; 20 mg/mL formulation without methionine, T0 (frozen aliquot)
interleukin 6 (IL-6) [5] = molecular target: interleukin 6 (IL-6) (UniProt P05231); experiment: IL-6 binding ELISA; 5±3°C, 0 months
interleukin 6 (IL-6) [6] = molecular target: interleukin 6 (IL-6) (UniProt P05231); experiment: IL-6 binding ELISA; 25±2°C, 6 months
interleukin 6 (IL-6) [7] = molecular target: interleukin 6 (IL-6) (UniProt P05231); experiment: IL-6 binding ELISA; 25±2°C, 3 months
interleukin 6 (IL-6) [8] = molecular target: interleukin 6 (IL-6) (UniProt P05231); experiment: IL-6 binding ELISA; 5±3°C, 9 months
interleukin 6 (IL-6) [9] = molecular target: interleukin 6 (IL-6) (UniProt P05231); experiment: IL-6 binding ELISA; 25±2°C, 1 month; remark: listed apart in the source
interleukin 6 (IL-6) [10] = molecular target: interleukin 6 (IL-6) (UniProt P05231); experiment: IL-6 binding ELISA, relative to a Phase I DS lot; 120 mg/mL formulation without methionine, 9 months at 2 to 8°C
interleukin 6 (IL-6) [11] = molecular target: interleukin 6 (IL-6) (UniProt P05231); experiment: IL-6 binding ELISA; 25±2°C, 0 months
interleukin 6 (IL-6) [12] = molecular target: interleukin 6 (IL-6) (UniProt P05231); experiment: IL-6 binding ELISA; 5±3°C, 3 months
interleukin 6 (IL-6) [13] = molecular target: interleukin 6 (IL-6) (UniProt P05231); experiment: IL-6 binding ELISA; 5±3°C, 12 months
interleukin 6 (IL-6) [14] = molecular target: interleukin 6 (IL-6) (UniProt P05231); experiment: IL-6 binding ELISA; 5±3°C, 0 months; remark: listed apart in the source
interleukin 6 (IL-6) [15] = molecular target: interleukin 6 (IL-6) (UniProt P05231); experiment: IL-6 binding ELISA; 25±2°C, 1 month; remark: listed apart in the source
interleukin 6 (IL-6) [16] = molecular target: interleukin 6 (IL-6) (UniProt P05231); experiment: IL-6 binding ELISA; 5±3°C, 9 months; remark: listed apart in the source
interleukin 6 (IL-6) [17] = molecular target: interleukin 6 (IL-6) (UniProt P05231); experiment: IL-6 binding ELISA; 5±3°C, 0 months; remark: listed apart in the source
interleukin 6 (IL-6) [18] = molecular target: interleukin 6 (IL-6) (UniProt P05231); experiment: IL-6 binding ELISA; 5±3°C, 3 months; remark: listed apart in the source
interleukin 6 (IL-6) [19] = molecular target: interleukin 6 (IL-6) (UniProt P05231); experiment: IL-6 binding ELISA; 5±3°C, 6 months; remark: listed apart in the source
interleukin 6 (IL-6) [20] = molecular target: interleukin 6 (IL-6) (UniProt P05231); experiment: IL-6 binding ELISA; 5±3°C, 0 months; remark: listed apart in the source
interleukin 6 (IL-6) [21] = molecular target: interleukin 6 (IL-6) (UniProt P05231); experiment: IL-6 binding ELISA; 5±3°C, 6 months; remark: listed apart in the source
interleukin 6 (IL-6) [22] = molecular target: interleukin 6 (IL-6) (UniProt P05231); experiment: IL-6 binding ELISA; 25±2°C, 1 month; remark: listed apart in the source
interleukin 6 (IL-6) [23] = molecular target: interleukin 6 (IL-6) (UniProt P05231); experiment: IL-6 binding ELISA; 5±3°C, 1 month
interleukin 6 (IL-6) [24] = molecular target: interleukin 6 (IL-6) (UniProt P05231); experiment: IL-6 binding ELISA; 40±2°C, 0 months
interleukin 6 (IL-6) [25] = molecular target: interleukin 6 (IL-6) (UniProt P05231); experiment: IL-6 binding ELISA; 5±3°C, 1 month; remark: listed apart in the source
interleukin 6 (IL-6) [26] = molecular target: interleukin 6 (IL-6) (UniProt P05231); experiment: IL-6 binding ELISA; 5±3°C, 0 months; remark: listed apart in the source
interleukin 6 (IL-6) [27] = molecular target: interleukin 6 (IL-6) (UniProt P05231); experiment: IL-6 binding ELISA, relative to a Phase I DS lot; 20 mg/mL formulation without methionine, 12 months at 2 to 8°C
interleukin 6 (IL-6) [28] = molecular target: interleukin 6 (IL-6) (UniProt P05231); experiment: IL-6 binding ELISA; 40±2°C, 0 months; remark: listed apart in the source
interleukin 6 (IL-6) [29] = molecular target: interleukin 6 (IL-6) (UniProt P05231); experiment: IL-6 binding ELISA; 40±2°C, 1 month
interleukin 6 (IL-6) [30] = molecular target: interleukin 6 (IL-6) (UniProt P05231); experiment: IL-6 binding ELISA; 25±2°C, 6 months; remark: listed apart in the source
interleukin 6 (IL-6) [31] = molecular target: interleukin 6 (IL-6) (UniProt P05231); experiment: IL-6 binding ELISA; 25±2°C, 6 months; remark: listed apart in the source

UniProt P05231, sequence (P05231 30-212 limits assumed): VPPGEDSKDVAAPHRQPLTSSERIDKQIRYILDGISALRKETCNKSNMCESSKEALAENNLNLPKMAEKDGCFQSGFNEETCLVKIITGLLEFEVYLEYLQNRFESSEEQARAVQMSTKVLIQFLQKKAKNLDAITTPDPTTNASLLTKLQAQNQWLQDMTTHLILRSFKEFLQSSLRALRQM

B1: COR-001 antibody (antibody, human IgG1, kappa, V domains shown)
VH: EVQLVESGGGLVQPGGSLRLSCAASGFTISSNYMIWVRQAPGKGLEWVSDLYYYAGDTYYADSVKGRFTMSRDISKNTVYLQMNSLRAEDTAVYYCARWADDHPPWIDLWGRGTLVTVSS
VL: DIQMTQSPSTLSASVGDRVTITCRASQGISSWLAWYQQKPGKAPKVLIYKASTLESGVPSRFSGSGSGTEFTLTISSLQPDDFATYYCQQSWLGGSFGQGTKLEIKR
Interleukin 6 (IL-6) [1]
  IL-6 binding ELISA (% of Reference Standard): 92%
Interleukin 6 (IL-6) [2]
  IL-6 binding ELISA (% of Reference Standard): 95%
Interleukin 6 (IL-6) [3]
  IL-6 binding ELISA (% of Reference Standard): 86%
Interleukin 6 (IL-6) [4]
  IL-6 binding ELISA (% of assay control): 61%
Interleukin 6 (IL-6) [5]
  IL-6 binding ELISA (% of Reference Standard): 97%
Interleukin 6 (IL-6) [6]
  IL-6 binding ELISA (% of Reference Standard): 92%
Interleukin 6 (IL-6) [7]
  IL-6 binding ELISA (% of Reference Standard): 102%
Interleukin 6 (IL-6) [8]
  IL-6 binding ELISA (% of Reference Standard): 98%
Interleukin 6 (IL-6) [9]
  IL-6 binding ELISA (% of Reference Standard): 93%
Interleukin 6 (IL-6) [10]
  IL-6 binding ELISA (% of assay control): 79%
Interleukin 6 (IL-6) [11]
  IL-6 binding ELISA (% of Reference Standard): 96%
Interleukin 6 (IL-6) [12]
  IL-6 binding ELISA (% of Reference Standard): 96%
Interleukin 6 (IL-6) [13]
  IL-6 binding ELISA (% of Reference Standard): 98%
Interleukin 6 (IL-6) [14]
  IL-6 binding ELISA (% of Reference Standard): 103%
Interleukin 6 (IL-6) [15]
  IL-6 binding ELISA (% of Reference Standard): 110%
Interleukin 6 (IL-6) [16]
  IL-6 binding ELISA (% of Reference Standard): 89%
Interleukin 6 (IL-6) [17]
  IL-6 binding ELISA (% of Reference Standard): 94%
Interleukin 6 (IL-6) [18]
  IL-6 binding ELISA (% of Reference Standard): 85%
Interleukin 6 (IL-6) [19]
  IL-6 binding ELISA (% of Reference Standard): 83%
Interleukin 6 (IL-6) [20]
  IL-6 binding ELISA (% of Reference Standard): 96%
Interleukin 6 (IL-6) [21]
  IL-6 binding ELISA (% of Reference Standard): 97%
Interleukin 6 (IL-6) [22]
  IL-6 binding ELISA (% of Reference Standard): 98%
Interleukin 6 (IL-6) [23]
  IL-6 binding ELISA (% of Reference Standard): 86%
Interleukin 6 (IL-6) [24]
  IL-6 binding ELISA (% of Reference Standard): 94%
Interleukin 6 (IL-6) [25]
  IL-6 binding ELISA (% of Reference Standard): 94%
Interleukin 6 (IL-6) [26]
  IL-6 binding ELISA (% of Reference Standard): 91%
Interleukin 6 (IL-6) [27]
  IL-6 binding ELISA (% of assay control): 84%
Interleukin 6 (IL-6) [28]
  IL-6 binding ELISA (% of Reference Standard): 103%
Interleukin 6 (IL-6) [29]
  IL-6 binding ELISA (% of Reference Standard): 85%
Interleukin 6 (IL-6) [30]
  IL-6 binding ELISA (% of Reference Standard): 81%
Interleukin 6 (IL-6) [31]
  IL-6 binding ELISA (% of Reference Standard): 100%
